In patent US20210230288A1:

What was measured:
IgG Fc (control) [1] = test: phage ELISA on control (IgG Fc), lower end
IgG Fc (control) [2] = test: phage ELISA on control (IgG Fc), upper end
IgG Fc (control) [3] = test: phage ELISA on control (IgG Fc), 89 identical clones

B1: bb10 (SEQ ID NO 19), phage clone (designed binder)
chain: MGSWAEFKQRLAAIKTRLEALGGSEAELAAFLGEIWAFEMELAAYKGKGNPEVEALGREAAAIRMELQAYRHN
Which results are given for B1?
ELISA absorbance (IgG Fc (control) [1]): 0.056 OD; ELISA absorbance (IgG Fc (control) [2]): 0.125 OD; ELISA absorbance (IgG Fc (control) [3]): 0.067 OD
